Values belong to the binder of their own block, whether it stands above or below them.
Legend:
[1] = target: T1, N-terminally His6-tagged cMyc-tagged human CCR1 (human, UniProt P32246 1-355); assay: radioligand binding; competitive displacement of 50 pM 125I-CCL3 from membranes of Flp-In T-REx 293 cells expressing CCR1; 2 h at 37 °C; two sets of experiments (Table 1, Table 3); settings: one partner purified
T1 construct: C-C chemokine receptor 1 (CCR1), human; stably expressed in Flp-In T-REx 293 cells; also called chemokine receptor 1; source: Flp-In T-REx 293 cells, stably expressed; not shown: His6, N-terminal, kept; cMyc, N-terminal, kept
T1 sequence (looked up): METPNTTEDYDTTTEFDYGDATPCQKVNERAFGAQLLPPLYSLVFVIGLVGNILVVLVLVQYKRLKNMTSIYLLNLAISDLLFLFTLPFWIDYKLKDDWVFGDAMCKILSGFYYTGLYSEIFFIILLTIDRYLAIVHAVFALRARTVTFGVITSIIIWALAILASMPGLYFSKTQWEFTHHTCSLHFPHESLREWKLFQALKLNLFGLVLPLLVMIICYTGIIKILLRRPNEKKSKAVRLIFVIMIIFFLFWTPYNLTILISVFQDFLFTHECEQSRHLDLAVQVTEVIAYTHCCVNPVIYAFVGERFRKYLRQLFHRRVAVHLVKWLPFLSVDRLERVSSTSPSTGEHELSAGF

[2] = target: T1, N-terminally His6-tagged cMyc-tagged …; assay: cell-based or functional assay
[3] = target: T1, N-terminally His6-tagged cMyc-tagged …; assay: cell-based or functional assay; remark: listed apart in the source
[4] = target: T1, N-terminally His6-tagged cMyc-tagged …; assay: radioligand binding; competitive displacement of 50 pM 125I-CCL3 from membranes of Flp-In T-REx 293 cells expressing CCR1; 2 h at 37 °C; two sets of experiments (Table 1, Table 3); settings: one partner purified; remark: listed apart in the source

IC50 [1]: 2.3 nM | pIC50 [1]: 8.6 -log M | ERK1/2 phosphorylation, EC50 [2]: 65.5 nM | ERK1/2 phosphorylation, pEC50 [2]: 7.2 -log M | G protein activation (Gαi1, BRET), EC50 [2]: 30 nM | G protein activation (Gαi1, BRET), pEC50 [2]: 7.5 -log M | inhibition of forskolin-induced cAMP production, EC50 [2]: 48 nM | inhibition of forskolin-induced cAMP production, pEC50 [2]: 7.3 -log M
B1: CCL8 (Lys-46 allele, Pro-8→Ala) (ligand, human, UniProt P80075 24-99, looked up)
chain: QPDSVSIAITCCFNVINRKIPIQRLESYTRITNIQCPKEAVIFKTKRGKEVCADPKERWVRDSMKHLDQIFQNLKP
notes: CCL8 (MCP-2), human, Lys-46 allele, with Pro-8→Ala to make the protein monomeric; N-terminal region of ten residues before the CC motif; also called MCP-2; not shown: His6, N-terminal, cleaved

Gαi2 activation (BRET), EC50 [3]: 26.4 nM | Gαi2 activation (BRET), pEC50 [3]: 7.6 -log M | IC50 [1]: 0.33 nM | pIC50 [1]: 9.5 -log M | IC50 [4]: 1.2 nM | pIC50 [4]: 8.9 -log M | ERK1/2 phosphorylation, EC50 [2]: 9.6 nM | ERK1/2 phosphorylation, pEC50 [2]: 8 -log M | G protein activation (Gαi1, BRET), EC50 [2]: 14 nM | G protein activation (Gαi1, BRET), pEC50 [2]: 7.9 -log M | inhibition of forskolin-induced cAMP production, EC50 [2]: 9.5 nM | inhibition of forskolin-induced cAMP production, pEC50 [2]: 8 -log M
B2: CCL7 (ligand)
chain: not shown
notes: CCL7 (MCP-3), human, wild type; N-terminal region of ten residues before the CC motif; also called monocyte chemoattractant protein-3; MCP-3; not shown: His6, N-terminal, cleaved
